Patent US20210220451A1
Read-outs that look alike come from different tables or passages of the source.

B1: recombinant nepenthesin II (from N. gracilis, acid-activated) (protein)
chain: QSSSGIETPVYAGDGEYLMNVAIGTPDSSFSAIMDTGSDLIWTQCEPCTQCFSQPTPIFNPQDSSSFSTLPCESQYCQDLPSETCNNNECQYTYGYGDGSTTQGYMATETFTFETSSVPNIAFGCGEDNQGFGQGNGAGLIGMGWGPLSLPSQLGVGQFSYCMTSYGSSSPSTLALGSAASGVPEGSPSTTLIHSSLNPTYYYITLQGITVGGDNLGIPSSTFQLQDDGTGGMIIDSGTTLTYLPQDAYNAVAQAFTDQINLPTVDESSSGLSTCFQQPSDGSTVQVPEISMQFDGGVLNLGEQNILISPAEGVICLAMGSSSQLGISIFGNIQQQETQVLYDLQNLAVSFVPTQCGAS
B2: recombinant nepenthesin I (from N. gracilis, acid-activated) (protein)
chain: APTHSTSRTALNHRHEAKVTGFQIMLEHVDSGKNLTKFQLLERAIERGSRRLQRLEAMLNGPSGVETSVYAGDGEYLMNLSIGTPAQPFSAIMDTGSDLIWTQCQPCTQCFNQSTPIFNPQGSSSFSTLPCSSQLCQALSSPTCSNNFCQYTYGYGDGSETQGSMGTETLTFGSVSIPNITFGCGENNQGFGQGNGAGLVGMGRGPLSLPSQLDVTKFSYCMTPIGSSTPSNLLLGSLANSVTAGSPNTTLIQSSQIPTFYYITLNGLSVGSTRLPIDPSAFALNSNNGTGGIIIDSGTTLTYFVNNAYQSVRQEFISQINLPVVNGSSSGFDLCFQTPSDPSNLQIPTFVMHFDGGDLELPSENYFISPSNGLICLAMGSSSQGMSIFGNIQQ

How the values were obtained:
[1] = biological target: 33-mer toxic gluten peptide from alpha-gliadin; experiment: cell-based or functional assay
[2] = tested on: T1, 33-mer toxic gluten peptide from alpha-gliadin
T1 sequence: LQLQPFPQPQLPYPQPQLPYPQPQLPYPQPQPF

[3] = biological target: T2, 33-mer toxic gluten peptide from alpha-gliadin
T2 chain: T1 sequence

Row | Molecule | Relative Peak Area (%) of undigested 33-mer by LC-MS after 0.5 h at 100:1 substrate:enzyme, percent of the control without enzyme [3] [%] | other results
1 | high molecular weight fraction (>approx. 10 kDa) of Nepenthes extract (fluid) |  | Relative Peak Area (%) of undigested 33-mer by LC-MS after 0.5 h at 100:1 substrate:enzyme, percent of the control without enzyme [1]: 0%
2 | pepsin |  | Relative Peak Area (%) of undigested 33-mer by LC-MS after 0.5 h at 100:1 substrate:enzyme, percent of the control without enzyme [2]: 93.2%
3 | B1 | 34 | 
4 | B2 | 78.7 | 
